Among the data in US20230192818A1 are Kd and koff values, retold here.

In assay [1] the target is FCGR1 (UniProt P12314).
Assay [2] concerns the target FCGR 2a (H 167) (UniProt P12318).
Assay [3] has as its target FCGR 2b/c (UniProt P31994).
In assay [4] the target is FCGR 3a (F 176) (UniProt P08637).
Assay [5] has as its target FCGR 3a (V 176) (UniProt P08637).
Assay [6] concerns the target FcRn (UniProt P55899).

Where “and” joins values, the source holds several entries; their conditions need not be identical. Equal values may be shown once.

FCGR1, sequence (P12314 16-288 limits assumed): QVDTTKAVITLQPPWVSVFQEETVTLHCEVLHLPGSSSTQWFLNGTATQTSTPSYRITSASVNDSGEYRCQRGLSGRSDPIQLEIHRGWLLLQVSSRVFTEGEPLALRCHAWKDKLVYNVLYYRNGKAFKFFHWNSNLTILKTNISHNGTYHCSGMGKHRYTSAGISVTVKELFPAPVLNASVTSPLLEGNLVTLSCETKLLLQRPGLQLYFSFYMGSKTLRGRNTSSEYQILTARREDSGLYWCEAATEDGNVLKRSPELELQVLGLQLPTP
FCGR 3a (V 176), sequence (P08637 17-208 F176V limits assumed): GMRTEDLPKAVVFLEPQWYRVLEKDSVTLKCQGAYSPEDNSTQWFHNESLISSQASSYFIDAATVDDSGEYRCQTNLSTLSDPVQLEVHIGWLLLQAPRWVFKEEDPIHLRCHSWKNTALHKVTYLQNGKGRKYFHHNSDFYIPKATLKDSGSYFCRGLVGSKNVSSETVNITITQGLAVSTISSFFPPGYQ
FCGR 2b/c, sequence (P31994 46-217 limits assumed): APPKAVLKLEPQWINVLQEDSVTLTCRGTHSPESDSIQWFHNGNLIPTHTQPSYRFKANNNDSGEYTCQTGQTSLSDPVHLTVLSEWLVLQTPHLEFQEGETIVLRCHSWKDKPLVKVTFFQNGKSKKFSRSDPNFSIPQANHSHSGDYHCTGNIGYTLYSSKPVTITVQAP
FCGR 3a (F 176), sequence (P08637 17-208 limits assumed): as the sequence (P08637 17-208 F176V limits assumed) above, with V160F counted along it
FcRn, sequence (P55899 24-297 limits assumed, chain 1 of 2): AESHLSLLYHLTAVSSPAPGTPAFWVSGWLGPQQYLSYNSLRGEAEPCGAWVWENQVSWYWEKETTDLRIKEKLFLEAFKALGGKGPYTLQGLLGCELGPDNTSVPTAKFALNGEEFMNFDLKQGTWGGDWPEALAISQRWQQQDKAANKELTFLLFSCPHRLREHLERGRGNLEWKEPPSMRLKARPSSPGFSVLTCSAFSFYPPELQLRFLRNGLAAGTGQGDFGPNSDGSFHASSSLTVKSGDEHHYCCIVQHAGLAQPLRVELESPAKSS
FcRn, sequence (P61769 21-119 limits assumed, chain 2 of 2, further chain): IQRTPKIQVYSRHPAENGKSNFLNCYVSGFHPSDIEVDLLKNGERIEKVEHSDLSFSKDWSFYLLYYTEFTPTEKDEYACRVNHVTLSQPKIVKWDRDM

The Kd is the constant that tells how readily two partners part at equilibrium. Higher therefore signals a looser complex. Broadly, the koff is the rate constant with which the complex falls apart. A high value points to a short-lived complex. For the substance human IgG1 isotype control (antibody), the dissociation constant (Kd) in assay [1] was 0.46 nM; in assay [2], 462 nM and 537 nM; in assay [3], 1360 nM and 1590 nM; in assay [4], 1110 nM and 796 nM; in assay [5] it was 161 nM and 210 nM; in assay [6], 81.1 nM and 86.5 nM. The substance further had a koff in assay [1] of 0.000245 s⁻¹.
